Test results as given in patent US11479791B2, “Tools and methods for expression of membrane proteins” (VIB VZW, priority 2012, dated 2022).
Blank lines part the entries; values can stand above or below the molecule they belong to.

Assays:
[1] = molecular target: T1, human CXCR4 receptor (hCXCR4Rho1D4) (Homo sapiens, UniProt P61073); assay: hCXCR4-Nb co-expression in P. pastoris GS115; anti-Rho1D4 immunoblot of membrane protein, quantified by Odyssey software; format: cell-based; conditions: for change of hCXCR4 receptor expression upon Nb co-expression (in words): immunoblot, versus GS115hCXCR4 clone without Nb co-expression
T1 construct: expressed in transfected cells; host or cells: Pichia pastoris GS115
Procedure: An hCXCR4 expressing Pichia clone was transformed with the four linearized Nanobody expressing vectors as described before. Twenty-four positive clones (six per Nb) were analyzed for protein expression. Growth conditions and membrane protein sample preparations were done as previously described. Equal amounts of total membrane protein (determined by a BCA assay) of induced P. pastoris GS115 clones, expressing only the human CXCR4 receptor, or in combination with one of the anti-hCXCR4 Nanobodies, were run on a 12% SDS-PAGE gel and blotted on a nitrocellulose membrane. The blot was developed with a primary mouse anti-Rho1D4 monoclonal antibody and a secondary Dylight (800 nm) goat anti-mouse IgG on an LI-COR odyssey system. […] The quantification was performed by the Odyssey software by measuring relative fluorescent signals (Table 3).
An hCXCR4 expressing Pichia clone was transformed with the linearized Nanobody expressing vector as described before. Three positive clones were analyzed for protein expression. Growth conditions and membrane protein sample preparations were done as previously described. Equal amounts of total membrane protein (determined by a BCA assay) of induced P. pastoris GS115 clones, expressing only the human CXCR4 receptor, or in combination with a anti-hCXCR4 Nanobody (NbCA4142), or in combination with the negative control Nanobody (NbCA4910), were run on a 12% SDS-PAGE gel and blotted on a nitrocellulose membrane. The blot was developed with a primary mouse anti-Rho1D4 monoclonal antibody and a secondary Dylight (800 nm) goat anti-mouse IgG on an LI-COR odyssey system. For the hCXCR4-specific Nb co-expressing clone we detect more of the anti-Rho1D4 immunoreactive membrane protein band compared to the GS115hCXCR4 clone without Nb co-expression. […] Exact quantification has been calculated by the Odyssey software by measuring relative fluorescent signals (Table 4). It can, thus, be concluded that the increase in receptor expression can be attributed to the Nanobody-specific interaction with the receptor.
Stable positive clones were typically grown in 2 ml (24-well format) or 12.5 ml (shake-flasks) BMGY medium for 48 hours (250 rpm; 28° C.). The cells were harvested by centrifugation and resuspended in the same amount of BMMY medium (1% methanol; 0.5% of methanol was added after 12 hours to maintain induction). After 24 hours the cells were harvested for membrane protein preparations (analysis of hCXCR4 expression and intracellular Nb retention) and the supernatant was used for analysis of extracellular protein expression on SDS-PAGE (Nanobodies).
The cell pellet corresponding to 1 ml of saturated yeast culture (OD600 60-80) was suspended in 1 ml of PBS+Protease inhibitor (Roche). Together with 200 μl of acid washed glass beads, the samples were vortexed heavily at 4° C. for 2×5 minutes. Glass beads, cell debris and intact cells were removed by centrifugation at 2000 rpm (5 min; 4° C.). The supernatant was kept as such or was centrifuged for 45 minutes at 13,000 rpm in a desktop centrifuge at 4° C. The supernatant, cytosolic fraction was discarded and the pellet fraction was re-dissolved in the same amount of fresh PBS+PI by sonication until a homogenous sample was obtained.
Total membrane protein concentration was determined by the BCA protein assay kit (Pierce, Thermo Scientific).
Protein samples were analyzed by SDS-poly-acrylamide gel electrophoresis, according to the Laemmli (Laemmli et al., 1970, Nature, 227:680) or the Tricine method (Schägger et al., 2006, Nat. Protoc. 1:16-22). Before loading on gel, the samples were mixed with 5× Laemmli (60 mM Tris-HCl pH 6.8; 2% SDS, 10% glycerol, 5% β-ME; 0.01% bromophenol blue) and heated for 10 minutes at 95° C. (only the ECM samples, not the membrane protein preparations). Prestained protein markers in the range of 10-250 kDa, Precision Plus protein standards (Bio-Rad), were used as molecular standards. […]

hCXCR4 receptor = molecular target: T2, hCXCR4 receptor (Homo sapiens, UniProt P61073); assay: Purification of hCXCR4-Nanobody complex from co-expressing P. pastoris clone by Ni2+ affinity chromatography; format: binding; conditions: DDM-solubilized membrane protein of co-expressing clone; FIG. 9
T2 construct: made in house; host or cells: Pichia pastoris GS115 co-expressing clone
Text: In this way we only purify the receptor fraction that is in a well-folded state, because the Nanobody can only bind the receptor when it is in its native fold. This step strongly increases homogeneity in a membrane protein sample which is useful, for example, for crystallization. […] In case an even more pure sample is required, an extra step of affinity chromatography can be performed using an anti-Rho1D4 affinity matrix, which targets the hCXCR4 part of the complex.
The cell pellet corresponding to 1 L of saturated yeast culture (OD600 60-80) was resuspended in a 1:1 (w/v) ratio of buffer A (1×PBS+Protease inhibitors). Together with 190 g of glass beads, the suspension was brought in the precooled DYNO®-MILL mixing chamber and cells were crushed for 5 minutes. The lysate was centrifuged for 10 minutes at 2,000 rpm (Sorvall F10S-6X500Y rotor) at 4° C. to remove cell debris and intact cells. The supernatant was centrifuged for an hour at 13,000 rpm (Sorvall F10S-6X500Y rotor) at 4° C. to pellet the membrane proteins. The pellet was resuspended in 10 ml buffer A with 1% DDM (n-Dodecyl β-D-maltoside) and put on a rotor for three hours at 4° C. to allow membrane protein solubilization. After solubilization, the solution is centrifuged for one hour at 13,000 rpm (Sorvall SS-34 rotor) at 4° C. to remove unsolubilized membrane proteins. […]

β2-adrenergic receptor = molecular target: T3, β2-adrenergic receptor (Mesocricetus auratus, UniProt P04274); assay: Purification of β2AR-Nanobody complex from HEK293S cells by Ni2+ affinity chromatography; format: binding; conditions: upon the addition of the antagonist alprenolol hydrochloride; FIG. 10
T3 construct: expressed in transfected cells
Text: The same technique as in Example 4 can be used using a Nanobody that binds an intracellular epitope of the membrane protein. Nanobody CA2780 (amino acid sequence: SEQ ID NO:5; Nucleotide sequence: SEQ ID NO:23) is an example of a Nanobody that binds an intracellular epitope of the β2-adrenergic receptor and that stabilizes the receptor in its active conformation (Rasmussen et al., 2011, Nature 469: 175). We transformed a HEK293 cell line that has a stable inducible β2AR expression with the pCAGGSNbCA2780-plasmid (see Material and Methods section) for transient expression. This Nanobody is not fused to a secretion signal and, therefore, resides in the cytosol upon expression, to allow interaction with the intracellular side of the membrane protein. Nanobody CA2780 has a hexaHis-tag and can, therefore, be purified using Ni^2+ affinity chromatography. […] In this way we strongly enrich for the receptor fraction that is in a well-folded state, because the Nanobody can only bind the receptor when it is in its native fold. This step strongly increases homogeneity in a membrane protein sample going to f.e. crystallization trials. If necessary, a subsequent purification using anti-Rho1D4 affinity chromatography can further enrich the sample for the receptor. […]

[2] = Table 3, anti-Rho1D4 immunoreactive hCXCR4 band, average of two independent experiments
[3] = Table 3, corrected for GS115 negative control
[4] = Table 4, co-expressing clone cl1
[5] = Table 4, co-expressing clone cl2
[6] = Table 4, co-expressing clone cl3

T1 sequence (P61073 with tags, fused parts or gaps isoform P61073-2): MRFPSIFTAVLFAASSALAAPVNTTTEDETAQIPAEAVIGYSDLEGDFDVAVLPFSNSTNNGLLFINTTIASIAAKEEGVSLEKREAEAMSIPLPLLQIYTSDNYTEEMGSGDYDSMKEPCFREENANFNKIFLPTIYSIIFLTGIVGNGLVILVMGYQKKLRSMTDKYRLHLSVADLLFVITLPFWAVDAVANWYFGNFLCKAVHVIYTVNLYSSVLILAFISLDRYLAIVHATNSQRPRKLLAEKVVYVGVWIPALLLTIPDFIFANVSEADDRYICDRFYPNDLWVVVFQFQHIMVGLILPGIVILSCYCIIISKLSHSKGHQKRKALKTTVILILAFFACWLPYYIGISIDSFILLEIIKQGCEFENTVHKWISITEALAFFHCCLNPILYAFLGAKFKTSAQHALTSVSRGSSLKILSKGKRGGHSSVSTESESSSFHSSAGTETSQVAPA
T3 sequence (P04274 whole entry): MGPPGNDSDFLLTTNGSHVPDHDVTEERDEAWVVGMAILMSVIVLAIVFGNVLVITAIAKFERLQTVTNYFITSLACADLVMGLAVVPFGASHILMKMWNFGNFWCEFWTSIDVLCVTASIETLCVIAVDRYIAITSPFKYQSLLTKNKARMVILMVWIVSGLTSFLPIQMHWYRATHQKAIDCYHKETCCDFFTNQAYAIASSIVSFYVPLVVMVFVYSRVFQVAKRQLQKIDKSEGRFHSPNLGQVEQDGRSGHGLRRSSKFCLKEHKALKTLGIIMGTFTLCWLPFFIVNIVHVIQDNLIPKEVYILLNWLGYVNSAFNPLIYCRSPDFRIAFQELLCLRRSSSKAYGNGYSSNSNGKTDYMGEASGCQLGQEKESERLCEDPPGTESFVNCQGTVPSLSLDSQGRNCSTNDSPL
T2 sequence (P61073 with tags, fused parts or gaps isoform P61073-2): as the sequence (P61073 with tags, fused parts or gaps isoform P61073-2) above

Fluorescent units [1, 2]: 39.95 fluorescent units
Blank corrected [1, 3]: 36.61 fluorescent units
B1: NbCA4140: Nanobody directed against the extracellular side of the human CXCR4 receptor, SEQ ID NO:1, His6 tag (protein, listed as Lama glama)
VHH: QVQLQESGGGLVQPGGSLRLSCAASGSIFSINAMGWYRQAPGKQRELVAAITSGGSTNYADSVKGRFTISRDNAENTVYLQMNNLKPEDTAVYSCNAEGTSGSSRYRRRYEYWGKGTQVTVSSHHHHHH
modifications: His6 tag

Blank corrected [1, 4]: 6.56 fluorescent units
Fluorescent units [1, 4]: 8.97 fluorescent units
Blank corrected [1, 5]: 17.89 fluorescent units
Fluorescent units [1, 5]: 20.30 fluorescent units
Blank corrected [1, 6]: 19.49 fluorescent units
Fluorescent units [1, 6]: 21.90 fluorescent units
change of hCXCR4 receptor expression upon Nb co-expression (in words) [1]: no increase in the receptor expression
B2: NbCA4910: negative control Nanobody which does not recognize the hCXCR4, SEQ ID NO:6 (protein, listed as Lama glama)
VHH: QVQLVESGGGLVQPGGSLRLSCAASGSFRSIVSMAWYRQAPGKQRELVASSNSGGSTNYADSVKGRFTISRDNAKNTVYLQMNSLKPEDTAVYWCNVQNRLPGFDAFSGRSIAETYWGQGTQVTVSSAAAHHHHHH

Fluorescent units [1, 2]: 41.06 fluorescent units
Blank corrected [1, 3]: 37.72 fluorescent units
B3: NbCA4143: Nanobody directed against the extracellular side of the human CXCR4 receptor, SEQ ID NO:3, His6 tag (protein, listed as Lama glama)
VHH: QVQLQESGGGLVQPGGSLRLSCAASGFTFSSYAMSWVRQAPGKGLEWVSTINSGGRSANYADSVKGRLTISRDNAKNTLHLQMNSLKPEDTALYYCARPRSVSRNYVPLGYDYLGQGTQVTVSSHHHHHH
modifications: His6 tag

Fluorescent units [1, 2]: 21.59 fluorescent units
Blank corrected [1, 3]: 18.25 fluorescent units
change of hCXCR4 receptor expression upon Nb co-expression (in words) [1]: slight increase
B4: NbCA4500: Nanobody directed against the extracellular side of the human CXCR4 receptor, SEQ ID NO:4, His6 tag (protein, listed as Lama glama)
VHH: QVQLQESGGGLVQAGGSLRLSCAASGSTSGIIAMGWYRQAPGKQRELVARISSGSSTNYADSVKGRFTVSRDNAKNTVYLQMNSLKPEDTAVYYCNAVRRGYRNDYNSWGQGTQVTVSSHHHHHH
modifications: His6 tag

retention of the receptor on Ni2+ affinity column via hexaHis-tagged Nanobody (hCXCR4 receptor): strong retention of the receptor
Fluorescent units [1, 2]: 35.81 fluorescent units
Blank corrected [1, 3]: 32.47 fluorescent units
Fluorescent units ([1]; Table 4, control experiment): 32.76 fluorescent units
Blank corrected ([1]; Table 4, control experiment, corrected for GS115 negative control): 30.35 fluorescent units
change of hCXCR4 receptor expression upon Nb co-expression (in words) [1]: more
B5: NbCA4142: Nanobody directed against the extracellular side of the human CXCR4 receptor, SEQ ID NO:2, His6 tag (protein, listed as Lama glama)
VHH: QVQLQESGGGLVRTGGSLRLSCAGSGSFFSINPMGWYRQAPGQQRELVATITGSGSTNYADSVKGRFTISRDNAKNTLYLQMNSLKPEDTAVYYCNAGYFDRIGRRYDRWGQGTQVTVSSHHHHHH
modifications: His6 tag

interaction between receptor and Nanobody (complex purified by Ni2+ affinity chromatography) (β2-adrenergic receptor): strong interaction
B6: NbCA2780: Nanobody that binds an intracellular epitope of the β2-adrenergic receptor and stabilizes its active conformation (Rasmussen et al., 2011), SEQ ID NO:5 (protein, listed as Lama glama)
VHH: MEVQLQESGGGLVQAGGSLRLSCAASGSIFSINTMGWYRQAPGKQRELVAAIHSGGSTNYANSVKGRFTISRDNAANTVYLQMNSLKPEDTAVYYCNVKDYGAVLYEYDYWGQGTQVTVSSAAAHHHHHH
